Assays:
[1] = target: eIF4GII_(551–745)/eIF4E complex (human | murine) (UniProt O43432); assay: ITC
[2] = target: eIF4GII_(551–745)/eIF4E complex (human | murine) (UniProt O43432); assay: SEC-MALS

Chain of eIF4GII_(551–745)/eIF4E complex (human | murine) (O43432 551-745, chain 1 of 2): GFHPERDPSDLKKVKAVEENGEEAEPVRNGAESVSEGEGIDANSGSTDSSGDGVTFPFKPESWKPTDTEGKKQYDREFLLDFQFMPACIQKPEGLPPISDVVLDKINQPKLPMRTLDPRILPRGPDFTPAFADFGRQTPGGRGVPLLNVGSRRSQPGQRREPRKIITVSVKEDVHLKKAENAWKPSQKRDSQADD
Chain of eIF4GII_(551–745)/eIF4E complex (human | murine) (P63073 whole entry, chain 2 of 2, further chain): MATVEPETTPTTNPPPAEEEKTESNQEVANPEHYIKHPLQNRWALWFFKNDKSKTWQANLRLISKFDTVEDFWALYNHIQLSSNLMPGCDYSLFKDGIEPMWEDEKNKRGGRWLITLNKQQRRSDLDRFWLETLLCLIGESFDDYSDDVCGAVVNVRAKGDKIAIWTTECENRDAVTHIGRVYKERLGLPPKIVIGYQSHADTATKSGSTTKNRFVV

Substance: FMDV leader proteinase, shortened form, sLb^proC51A (FMDV residues 29–195) (enzyme)
- Kd [1]: 33 nM
- stoichiometry N [2]: 1

— article PMC4815241 (Protein Science : A Publication of the Protein Society, 2015)
